In assay [1] the target is T1, INADL d3 (Homo sapiens, UniProt Q8NI35).
T1 construct: made in house; host or cells: E. coli (DH5α, BL21 or JM109)
T1 sequence (Q8NI35 with tags, fused parts or gaps): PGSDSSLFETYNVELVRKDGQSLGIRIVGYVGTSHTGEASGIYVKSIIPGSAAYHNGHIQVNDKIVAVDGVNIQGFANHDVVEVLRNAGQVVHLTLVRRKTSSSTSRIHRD
The experiment in a line: G3 assay, binding of biotinylated peptide to GST-PDZ fusion. Conditions: G3 titration. On the procedure: (§1) The G3 assay is identical to the G0 assay with the following exceptions. The peptides are typically present at 0.1 μM rather than 20 μM. The peptides are also pre-incubated with the HRP-streptavidin prior to adding to the assay plate. In the G0 assay, free peptide is incubated with the PDZ proteins prior to the addition of the HRP-streptavidin. Thus, for the G0 assay one can lose signal if the bound peptide dissociates from the PDZ protein prior to the addition of the HRP-streptavidin. In the G3 modified assay the HRP-streptavidin/peptide complex is added to the plate in one step, thus increasing the likelihood that all the bound peptide will be bound to HRP-streptavidin. The G3 modified assay increases the chance of observing weak interaactions.
(§2) Reagents and Supplies • Nunc MaxiSorp 96 well Immuno-plate, Nunc • PBS pH 7.4 (phosphate buffered saline, 8 g NaCl, 0.29 g KCl, 1.44 g Na2HPO4, 0.24 g KH2PO4, add H2O to 1 liter and pH 7.4; 0.2 μm filter) • Assay Buffer: 2% BSA in PBS (20 g of bovine serum albumin per liter PBS, fraction V, ICN Biomedicals, cat#IC15142983 • Goat anti-GST polyclonal Ab, stock 5 mg/ml, stored at 4° C., Amersham Pharmacia cat#27-4577-01 • Dilute 1:1000 in PBS, final concentration 5 μg/ml. • HRP-Streptavidin, 2.5 mg/2 ml stock stored at 4° C., Zymed cat#43-4323, dilute 1:2000 into Assay buffer, final concentration of 0.5 μg/ml • Wash Buffer, PBS • Biotinylated peptides (HPLC purified, stock solution stored in −20° C. freezer) • GST-PRISM proteins (stock stored at −80° C., after 1st thaw store in −10° C. freezer) • TMB (3,3′,5,5′, teramethylbensidine), tablets, Sigma cat.#T5525 • Per plate, dissolve 1 tablet in 1 ml DMSO, add 9 ml Citrate/Phosphate buffer pH 5.4 and 2 μL H2O2 • 0.18M H2SO4, Sigma cat.#S 1526 • 12-w multichannel pipettor & tips • 50 ml reagent reservoirs, Costar#4870 • 50, 15 ml polypropylene conical tubes • Costar Transtar 96 Costar #7605 • Transtar 96 Cartridge Costar #7610 • Molecular Devices microplate reader (450 & 650 nm filters) with SoftMax Pro software • When using reagents stored at or 4° C. or −20° C., remove & keep on ice
(§3) Protocol • 1. Coat plate with 100 μl of 5 μg/ml anti-GST, overnight at 4° C. • 2. Dump contents of plate & out tap dry on paper towels • 3. Block with 200 μl Assay Buffer for 2 hrs at room temperature • 4. Prepare proteins at 5 μg/ml in Assay Buffer • 5. Wash 3× with cold PBS (4° C.), avoiding letting the plates dry out • 6. Add proteins at 50 μl per well, incubate 1 to 2 hrs at 4° C. • 7. Prepare peptides to desired concentration in Assay Buffer • 8. Wash 3× with cold PBS (4° C.), avoiding letting the plates dry out • 9. Add HRP-Streptavidin/peptide complex [prepared by incubating for 20 minutes at room temperature HRP-Streptavidin (1:2000) with the desired biotin-peptide concentration for 20 minutes at room temperature] at 50 μl per well on ice • 10. Place at room temperature for exactly 30 minutes • 11. Promptly wash 5× with PBS at room temperature • 12. Add 100 μl/well TMB substrate (write time on plate) • 13. Incubate in dark at room temperature for a maximum of 30 minutes • 14. Read plate at 25 minutes (650 nm), optional • 15. Stop reaction with 100 μl of 0.18 M H2SO4, 30 minutes after adding TMB Take last reading at 450 nm soon after stopping reaction
(§4) The G3 assay was performed using 0.1 μM peptide representing 11 amino acids of Tat fused to the final 9 amino acids of TRPM7 ([…]; SEQ ID NO:258).
(§5) The G3 assay was performed on a subset of the PDZ domains as in Example II except that the concentration of peptide was 0.002 μM, […], 0.1 μM, 0.2 μM, 1 μM, and 2 μM.
(§6) to calculate the EC50 for the binding of the peptides to the PDZ domains.
(§7) FIGS. 10A and 10B show graphs of the titrations for the Peptide #1829 with ZO-1 d2 and for the Peptide #1839 with INADL d3.

For assay [2], the target named is T2, ZO-1 d2 (Homo sapiens, UniProt Q07157, DEL264-264).
T2 construct: made in house; host or cells: E. coli (DH5α, BL21 or JM109)
T2 sequence (Q07157 with tags, fused parts or gaps DEL264-264): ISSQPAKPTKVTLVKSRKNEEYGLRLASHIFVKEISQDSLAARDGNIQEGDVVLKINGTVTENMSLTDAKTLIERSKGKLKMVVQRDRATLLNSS
The description is as above. Particulars: G3 titration. On the procedure: as §1, §2, §3, §4, §5, §6, §7

The target of another assay is T3, RIM2 d1 (Homo sapiens, UniProt Q9UQ26).
T3 construct: made in house; host or cells: E. coli (DH5α, BL21 or JM109)
T3 sequence (Q9UQ26 632-757): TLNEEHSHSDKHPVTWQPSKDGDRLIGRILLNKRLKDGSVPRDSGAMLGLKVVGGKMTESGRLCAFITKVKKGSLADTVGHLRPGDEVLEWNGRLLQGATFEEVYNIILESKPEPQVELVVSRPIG
The experiment in a line: G assays, titrations or binding assays of peptides. Particulars: peptide demonstrated to bind RIM2 d1 in G assays.

Assay [3] has as its target T2, ZO-1 d2. The experiment in a line: G assays, titrations or binding assays of peptides. Conditions: peptide demonstrated to bind ZO-1 d2 in G assays.
Description: (§8) In one aspect, the invention provides an assay in which a GST/PDZ fusion protein is immobilized on a surface (G assay). […] In a preferred embodiment, the assay is carried out as follows:
(§9) (3) The binding of the biotinylated peptide to the GST/PDZ fusion protein surface can be detected using a variety of methods and detectors known to one of skill in the art. In one embodiment, 100 μl per well of 0.5 μg/ml streptavidin-horseradish peroxidase (HRP) conjugate dissolved in BSA/PBS is added and allowed to react for 20 minutes at 4° C. The plate is then washed 5 times with 50 mM Tris pH 8.0 containing 0.2% Tween 20, and developed by addition of 100 μl per well of HRP-substrate solution (TMB, Dako) for 20 minutes at room temperature (RT). The reaction of the HRP and its substrate is terminated by addition of 100 μl per well of 1 M sulfuric acid, and the optical density (O.D.) of each well of the plate is read at 450 um.
(§10) (4) Specific binding of a PL peptide and a PDZ domain polypeptide is determined by comparing the signal from the well(s) in which the PL peptide and PDZ domain polypeptide are combined, with the background signal(s). […] Typically a specific or selective reaction will be at least twice background signal, more typically more than 5 times background, and most typically 10 or more times the background signal. […] Correspondingly, a statistical test (e.g. a T-test) comparing repeated measurements of the signal with repeated measurements of the background will result in a p-value <0.05, more typically a p-value <0.01, and most typically a p-value <0.001 or less. As noted, in an embodiment of the G assay, the signal from binding of a given PL peptide to immobilized (surface bound) GST polypeptide alone is one suitable negative control (sometimes referred to as B1). Because all measurement are done in multiples (i.e. at least duplicate) the arithmetic mean (or, equivalently, average.) of several measurements is used in determining the binding, and the standard error of the mean is used in determining the probable error in the measurement of the binding. The standard error of the mean of N measurements equals the square root of the following: the sum of the squares of the difference between each measurement and the mean, divided by the product of (N) and (N−1). Thus, in one embodiment, specific binding of the PDZ protein to the platebound peptide is determined by comparing the mean signal (“mean S”) and standard error of the signal (“SE”) for a particular PL-PDZ combination with the mean B1.
The target in assay [4] is T1, INADL d3. The experiment in a line: G assays, titrations or binding assays of peptides. Particulars: peptide demonstrated to bind INADL d3 in G assays.
For the next assay, the target named is T4, PAR3 d3 (Homo sapiens, UniProt Q8TEW0, R682S).
T4 construct: made in house; host or cells: E. coli (DH5α, BL21 or JM109)
The experiment in a line: G assays, titrations or binding assays of peptides. Conditions: peptide demonstrated to bind PAR3 d3 in G assays.

Another assay has as its target T5, Syntrophin 1 alpha d1 (Homo sapiens, UniProt Q13424).
T5 construct: made in house; host or cells: E. coli (DH5α, BL21 or JM109)
T5 sequence (Q13424 84-177): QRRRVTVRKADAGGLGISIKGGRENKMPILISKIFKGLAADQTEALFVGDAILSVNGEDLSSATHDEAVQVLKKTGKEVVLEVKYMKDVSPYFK
As to the kind of experiment: G assays, titrations or binding assays of peptides. Particulars: peptide demonstrated to bind syntrophin 1 alpha d1 in G assays. On the procedure:
In one aspect, the invention provides an assay in which a GST/PDZ fusion protein is immobilized on a surface (G assay). The binding of labeled PL peptide (e.g., as listed in TABLE 2 and TABLE 4) to this surface is then measured. In a preferred embodiment, the assay is carried out as follows:
(1) A PDZ-domain polypeptide is bound to a surface, e.g. a protein binding surface. In a preferred embodiment, a GST/PDZ fusion protein containing one or more PDZ domains is bound to a polystyrene 96-well plate. […] In one embodiment, the GST/PDZ fusion protein is bound via an anti-GST antibody that is coated onto the 96-well plate. Adequate binding to the plate can be achieved when: • a. 100 μl per well of 5 μg/ml goat anti-GST polyclonal antibody (Pierce) in PBS is added to a polystyrene 96-well plate (e.g., Nunc Polysorp) at 4° C. for 12 hours. • b. The plate is blocked by addition of 200 μl per well of PBS/BSA for 2 hours at 4° C. • c. The plate is washed 3 times with PBS. • d. 50 μl per well of 5 μg/ml GST/PDZ fusion protein) or, as a negative control, GST polypeptide alone (i.e. not a fusion protein) in PBS/BSA is added to the plate for 2 hours at 4° C. • e. the plate is again washed 3 times with PBS.
(2) Biotinylated PL peptides are allowed to react with the surface by addition of 50 μl per well of 20 μM solution of the biotinylated peptide in PBS/BSA for 10 minutes at 4° C., followed by an additional 20 minute incubation at 25° C. The plate is washed 3 times with ice cold PBS.
(3) The binding of the biotinylated peptide to the GST/PDZ fusion protein surface can be detected using a variety of methods and detectors known to one of skill in the art. In one embodiment, 100 μl per well of 0.5 μg/ml streptavidin-horseradish peroxidase (HRP) conjugate dissolved in BSA/PBS is added and allowed to react for 20 minutes at 4° C. The plate is then washed 5 times with 50 mM Tris pH 8.0 containing 0.2% Tween 20, and developed by addition of 100 μl per well of HRP-substrate solution (TMB, Dako) for 20 minutes at room temperature (RT). The reaction of the HRP and its substrate is terminated by addition of 100 μl per well of 1 M sulfuric acid, and the optical density (O.D.) of each well of the plate is read at […].
(4) Specific binding of a PL peptide and a PDZ domain polypeptide is determined by comparing the signal from the well(s) in which the PL peptide and PDZ domain polypeptide are combined, with the background signal(s). The background signal is the signal found in the negative control(s). Typically a specific or selective reaction will be at least twice background signal, more typically more than 5 times background, and most typically 10 or more times the background signal. In addition, a statistically significant reaction will involve multiple measurements of the reaction with the signal and the background differing by at least two standard errors, more typically four standard errors, and most typically six or more standard errors. Correspondingly, a statistical test (e.g. a T-test) comparing repeated measurements of the signal with repeated measurements of the background will result in a p-value <0.05, more typically a p-value <0.01, and most typically a p-value <0.001 or less. As noted, in an embodiment of the G assay, the signal from binding of a given PL peptide to immobilized (surface bound) GST polypeptide alone is one suitable negative control (sometimes referred to as B1). Because all measurement are done in multiples (i.e. at least duplicate) the arithmetic mean (or, equivalently, average.) of several measurements is used in determining the binding, and the standard error of the mean is used in determining the probable error in the measurement of the binding. The standard error of the mean of N measurements equals the square root of the following: the sum of the squares of the difference between each measurement and the mean, divided by the product of (N) and (N−1). […]

Residues, ends and D or L forms follow the SMILES beside them. No end group written: not given here. *: point of attachment. Biotin = O=C1N[C@H]2[C@H](CS[C@H]2CCCCC(=O)*)N1

T4 sequence (Q8TEW0 with tags, fused parts or gaps R682S): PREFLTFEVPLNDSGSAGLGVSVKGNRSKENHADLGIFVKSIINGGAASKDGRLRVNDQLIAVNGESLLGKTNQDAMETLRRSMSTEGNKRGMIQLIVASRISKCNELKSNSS
Description for PAR3 d3: as §8, §9, §10
Description for RIM2 d1: as §8, §9, §10

In the case of `CC[C@H](C)[C@H](NC(=O)[C@H](CC(C)C)NC(=O)[C@H](CCCNC(=N)N)NC(=O)[C@H](CCCNC(=N)N)NC(=O)[C@H](CCC(=O)O)NC(=O)[C@H](CC(=O)O)NC(=O)[C@H](CCC(N)=O)NC(=O)[C@H](CCCNC(=N)N)NC(=O)[C@H](CCCNC(=N)N)NC(=O)[C@H](CCCNC(=N)N)NC(=O)[C@H](CCC(N)=O)NC(=O)[C@H](CCCNC(=N)N)NC(=O)[C@H](CCCNC(=N)N)NC(=O)[C@H](CCCCN)NC(=O)[C@H](CCCCN)NC(=O)[C@H](CCCNC(=N)N)NC(=O)CNC(=O)[C@H](Cc1ccc(O)cc1)NC(=O)CCCC[C@@H]1SC[C@@H]2NC(=O)N[C@@H]21)C(=O)N[C@H](C(=O)N[C@@H](CC(C)C)C(=O)O)C(C)C` [Peptide 1842] (Biotin-YGRKKRRQRRRQDERRLIVL-OH), the “ODmax (450 nm)” value on INADL d3 [1] came to 1.90; at ZO-1 d2 [2] it was 2.30. Also, the POZ domain bound entry on RIM2 d1 is given as “RIM2 D1”; at ZO-1 d2 [3], “ZO-1 D2”.

`CC(C)C[C@H](NC(=O)[C@H](CO)NC(=O)[C@@H](NC(=O)[C@H](CC(C)C)NC(=O)[C@H](CCCNC(=N)N)NC(=O)[C@H](CC(=O)O)NC(=O)CNC(=O)[C@H](CCCNC(=N)N)NC(=O)[C@H](C)NC(=O)[C@H](CCCNC(=N)N)NC(=O)[C@H](CCCNC(=N)N)NC(=O)[C@H](CCCNC(=N)N)NC(=O)[C@H](CCC(N)=O)NC(=O)[C@H](CCCNC(=N)N)NC(=O)[C@H](CCCNC(=N)N)NC(=O)[C@H](CCCCN)NC(=O)[C@H](CCCCN)NC(=O)[C@H](CCCNC(=N)N)NC(=O)CNC(=O)[C@H](Cc1ccc(O)cc1)NC(=O)CCCC[C@@H]1SC[C@@H]2NC(=O)N[C@@H]21)C(C)C)C(=O)O` [Peptide 1843] (Biotin-YGRKKRRQRRRARGDRLVSL-OH; C-terminus assumed): the “ODmax (450 nm)” value at INADL d3 [1] was determined as 1.20; at ZO-1 d2 [2], 2.20. The POZ domain bound entry on RIM2 d1 is “RIM2 D1”; at ZO-1 d2 [3] it was “ZO-1 D2”.

As to “Biotin-YGRKKRRQRRRSRTDRLEYV [Peptide 1846]”, the “ODmax (450 nm)” value at INADL d3 [1] is listed as 1.50. Also, the POZ domain bound entry on RIM2 d1 is reported as “RIM2 D1”.

As for “RELVDRGEVRQFTLRHWLKV (Biotin-RELVDRGEVRQFTLRHWLKV)”, the POZ domain bound result is reported as “INADL D3” in the assay with INADL d3 [4]; “PAR3 D3” in the assay with PAR3 d3; “RIM2 D1” with RIM2 d1; “Syntrophin 1 alpha D1” with Syntrophin 1 alpha d1; “ZO-1 D2” with ZO-1 d2 [3].

For “SSKSKSSEESQTFFGLYKL (Biotin-SSKSKSSEESQTFFGLYKL)”, the POZ domain bound entry is “INADL D3” with INADL d3 [4]; “PAR3 D3” with PAR3 d3; “RIM2 D1” with RIM2 d1; “Syntrophin 1 alpha D1” with Syntrophin 1 alpha d1; “ZO-1 D2” in the assay with ZO-1 d2 [3].

“VHKVRNKFKAKCSLCRLYII (Biotin-VHKVRNKFKAKCSLCRLYII; cysteine pairing not given here)”: the POZ domain bound result is recorded as “INADL D3” with INADL d3 [4]; “PAR3 D3” with PAR3 d3; “RIM2 D1” with RIM2 d1; “Syntrophin 1 alpha D1” with Syntrophin 1 alpha d1; “ZO-1 D2” in the assay with ZO-1 d2 [3].

The values above are taken from patent US7858322B2, “Method of determining inhibition of binding to TRPM7 protein” (NoNo, Inc., priority 2003, dated 2010).
